Reference: patent US8236925 (UNIVERSITY OF MINNESOTA, dated 2012)

Molecular target: the molecule itself

B1: E. coli dihydrofolate reductase (DHFR) (enzyme)
chain: MISLIAALAVDRVIGMENAMPWNLPADLAWFKRNTLNKPVIMGRHTWESIGRPLPGRKNIILSSQPGTDDRVTWVKSVDEAIAACGDVPEIMVIGGGRVYEQFLPKAQKLYLTHIDAEVEGDTHFPDYEPDDWESVFSEFHDADAQNSHSYCFEILERR
  selectivity of dimerization for E. coli DHFR relative to mouse DHFR: > 1e+07
  ΔG of favorable protein-protein interactions: ≥ -3.1 kcal/mol
